Data as given in publication PMC6421079.

Molecular target: Rubiscolin-6 (Spinacia oleracea)
Assay: [3H]DPDPE displacement radioligand binding

B1: Delta opioid receptor, P41143 (protein)
chain: MEPAPSAGAELQPPLFANASDAYPSACPSAGANASGPPGARSASSLALAIAITALYSAVCAVGLLGNVLVMFGIVRYTKMKTATNIYIFNLALADALATSTLPFQSAKYLMETWPFGELLCKAVLSIDYYNMFTSIFTLTMMSVDRYIAVCHPVKALDFRTPAKAKLINICIWVLASGVGVPIMVMAVTRPRDGAVVCMLQFPSPSWYWDTVTKICVFLFAFVVPILIITVCYGLMLLRLRSVRLLSGSKEKDRSLRRITRMVLVVVGAFVVCWAPIHIFVIVWTLVDIDRRDPLVVAALHLCIALGYANSSLNPVLYAFLDENFKRCFRQLCRKPCGRPDPSSFSRAREATARERVTACTPSDGPGGGAAA
Ki: 1000 nM
